Assay: soluble fraction after stress (log2 fold change); higher = more stays soluble; pooled small domains, quantitative proteomics
Settings: stress: 75 degC
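Further: 20 min heating vs room temperature control held 20 min.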

Row | Sequence | soluble fraction (log2)
1 | HMGEQVAVPDVTKKSVREVNNILTSAGLRLQIEGSGISVRQDPPADTMVAPDTVVTVSFEPP | 0.118
2 | HMKRVVFFNGISWYHRTKELLDDMTTKYGKKGGFATPEEAEKSYWEYEERYKDRQRELQVAYLKN | -1.79
3 | HMKAILHQESRSGFANATVIGGLDKFLDTNWNQLSKYIKKIETPYSDRSLEDRKIWISTILGILSTEI | 0.279
4 | HMDDDIKNALDVLPEQYRMTVYYADVEGLAYKEIGAIMNTPIGTVMSRIHRGRSQLRVLLAAVAADR | 0.316
5 | HMGSLGSLLKSVRNQRGLSRQQMAQSLNIGVRAIEQIEEGERKPDLELLNRYARGLMDPSVT | -0.166
6 | HMKTMEQSYIGRKIILDENVEDSALIKFEGIYWTFKSVSGPLKKGTEVEIIGIEGNKILIKNK | -0.988
7 | HMSQQVVTDGVNLRLRYAPSPDAETYKWADGTNRHPEKGERFPYLGDIGDFYRIDYKGLVLYVSKQHTHL | -2.04
8 | HMKNQIGFKIKNARRKASISQADLSAKLGISSSYLNLIESGKRNVNVDLLLKVSDVLNIELKDLSK | -2.06
9 | HMDVADITGTRKAAILLLTMDEELSKELLKEFERHEIEAIGKEIANIKYIPENIVKQVHSEFLKNINKS | -0.282
10 | HMDRSKREKEQQELMLKVQQIFDDNQQRFGAEKIRTVLAQNGVRVSVKRVSAIMQELNLRSIR | -2.36
11 | HMWAVDFVLLDKDDQRIGNAVAYRDDRTKGMDEEVYRTVPEEELYASTGIQKQIFNSIYQLMAWKK | -0.0106
12 | HMNETRVDQAADLLLALLEKEPKSAAEILDEFEQAGFSKSGLYRAKDALGVVSIRKEGRWVWSLPHSLD | 0.438
13 | HMDTVSYSTLLRDIDAKEIKQLDLVPGRREVRVQYNDGRRVTVPVFANDNQILRAAESSGTPLTVV | 0.0297
14 | HMEQKISVPALVGRDIEEILADTEVTGNFTIKEADKRVASNRPVGEVLEQDPGTGESAVKGTIITVTVSAG | -0.0542
15 | HMKTTKRERARAKLIQLLENEDRPAKEIYAGLGDIGVGSRTVEKVKKELQVTTYRSGGSWYWSLPKP | -0.525
16 | HMLRVVSTRQAFDIVRGWADAHPQDPEHNKTLDELEELAKKEVWDDWSRTNEIAERLNALLVSIGANVRTA | -0.961
17 | HMITNESEIERIVEAIISKNPESIAQYRSGITKVLGFLVGQVMKETKGRANPALVNRIIISKME | -0.899
18 | HMKSISMSKLRHLLQLYVQGRSKKLISEQTGIARNTLKKYIKEFSEAGLSLEALLALSDKELEDLFVK | -2.86
19 | HMVWTAGEVVERIRERVGHPATIRELMQVLTIPPEDRHRFRRRIMQLVEAGELIRIRGNRYGLAD | -2.59
20 | HMAESTRSRILNAAIEMMETGGESSVRLSAIAEALGIKEPSIYHHFTNRTELVNAAYIEWYW | -1.07
21 | HMEKEEELNSIRPDLDGNDIMEILGVPAGPKVGKAYNYLLNVRLDEGPLSRAEAISRLEAWWENQ | -0.168
22 | HMTDEEFSRIVKYTAVRYGINLYHKKVMVEGRLSNYLAANGFKSYTEYMDRVEADYTGQEAQNLINILTT | -2.53
23 | HMGAISGEQREFYTVFRGHLNSHVGEFKVEDIENLLMKAKTEVPDLLEEEFLKMGEAILNRYRN | 0.0818
24 | HMAPDNDELEKAKKIVNAFIEAKAKGLGVVSLGTKMIDAPVVKRAQKIIDQTIVMGKLSLNWQDEFFN | -0.208
25 | HMDGVLLDHLDGFVTTRRGVEAWLEQPTSFNKPSILLVAADGESTRRAIPSIAFGYDFASRHDIPAYDAG | -0.44
26 | HMSTKRQKELLEYVDRFITEHGYGPSYREIMNAIGYKSVSTVAIHIDGLIAKGYLRKRDNSARSLEVV | -1.17
27 | HMENEIPVPELVGMSEADAAAKLASLGLERDTQREATADEESVGKVLRQEPTPGEYVDEGHKVTIWVGE | 0.184
28 | HMRSGEDESFSAGLLEYPHYTRPAEFEGHRIPDILTSGDHAKVDAWRQEMSEHITRERRPDLWEMYKKK | 0.13

Row | Sequence | soluble fraction (log2)
29 | HMKLIPLTDMRGQLRSGAPLPWGVRDAQGNLLLGKGHVIASDDMLEALLARGMFVDAEEAKAARG | 0.0132
30 | HMKDLIGEAKAKELALGHAKLSASDVTFIHVELDWENGRRVYDVEFYSGAKEYDYEIDAKTGEIVSFDY | -1.23
31 | HMETLETYTSRLRQLEDITNNFKGVDKSFAIQAGREIRVMVVPEQVSDADMILMARDISKAIEAELEYPGQ | 0.0937
32 | HMHPSNQELTKVLAQGSELVLAQKYIEASQIFTRVIEIDQTWAEAWNKRATVFYLLQNYEASQKDIDEV | 0.0525
33 | HMSANVSMEEALRRTSQAHSLAGKWMRRVLQMAQGRDLIEQMQREAQEAHLPELIGMSVQLEFIRRG | -0.107
34 | HMAGGVFELTGKVTADAKAGDLVYVKAATGAGTKPVVTTVKTGADVIIGWLKEPVSSASVDQKMQVVLA | 0.267
35 | HMQATETFSLIVPMSSAGNRLDVVLSELLPNFSRKKIQDAIKNGDATLNGKAPKIRDKVYGGENITITLIL | -2.55
36 | HMTSFDVMLKSAGANKLAVVKLVKELTGLGLKEAKDIVDAAPSKVKEGVSKEEAEELQKQLTGAGAEVEL | -0.113
37 | HMDFSERLARAMSLAGYTQGRLAKEVGMAQSSVNKLLNGANGSRKTVEIASVLGVRPEWLSTGAGEML | -0.546
38 | HMLTLDEKRRLQIMRVQVALTSLGLYNGRVDGVLNAETKLGLEFFQDLKGLPKSGTMTTPTLNALGVPA | -2.43
39 | HMSEQSEALRTGLDQLPINQRTALTLFHLHELNQSEVAKIMNISVGAVESLLFRGRQKMKQLLTSD | -1.39
40 | HMEEITLIAEDEGLRLDTWLTDKLKDYSRSYIQKLMEDELVLVNGKARKANYRIKTGDEIHVSIPEPE | -0.0663
41 | HMEKDRDKRIRKRVLTALKRNDKKMTDKAFALLTSRIRDESILDQEVLKLIGYVGDRTTIDSKDINIVVAE | -0.392
42 | HMGKDIYLTSGWVEKFDELNEFSNSVDNYDRLNQFGMYENAIIGDTGVIKITDEMIFDLYEKIQVPVEAGP | -0.0582
43 | HMTDQYEVQNLVGLTVREAQEKEGVKDIFEVREVGSEFSAEYDAGLIVRQSPDAGEQRKGEGLVIEVWVSA | 0.106
44 | HMGSIDYLVGSRLRQYRRLRGYSLIEFSAMLHRSKSAISKYERGEVSIDLRTLNEMARLLDIPLSGLLL | -4.56
45 | HMTEDIAVRILEFLEDNNGFYALNDKTPSEKIHDLFGVSKKKFKIALGGLYKQRLITVSDAGVTLVK | -1.67
46 | HMGKHYLLKDDNGTITIYKILEDGTQEVYEKTEISTTYLPQTDNIGIKQGIRVNGDEALNELIENF | -0.0623
47 | HMRWAAIMGREVAAHSTPESLVEGKLHIRTDTTAWATQLRLMSADIVRRLNEVLGEGTVLEVDVRG | -2.22
48 | HMSDGIPDLRNLNFLSPQEGDYLNESDRVFGVTINGDGQAYPLRIVNAHEMVNDTLGGEPISLM | 0.124
49 | HMHTGEVVNGKVIDVKEDQIILNVGFKSDGIITRSEYSNDNSLDLRTVVNVGDDMEAKVLKINDGEGQVLL | -0.242
50 | HMNPKTELMVYLKKRDEWVASQILSDVLQVSTRTIRKFVKEINMDYQTENVILSSSKGYKLNQNLLSSL | -1.19
51 | HMSGKMTVPNVVGKTETEAKSALSAKGFTNVRTETVDSTEAAGTVVKQSLDADSVQDPKTEIVLSVSNG | 0.946
52 | HMKNENSLLVSRLAEEKIINRAKLVLMEYLKLSEPQAHRYIEKQAMDLQISRAEVAARVLETYE | -1.35
53 | HMGSKDLPFSTFMSEIDKGNITSVDIRGNEIQGTFANGTKFRTYSPNYPNLVEKLNGKGVSITAGPV | 0.409
54 | HMRNISLSLRWHSGEWTADRLKSEVLALPGAMDMTVFEPQSQAYLRVEQGFDTKLLPAGIDVH | -1.31
55 | HMDDIVFPNPTKNQINVSIDGLKNIYNLSGKLLISTNDKIIDVSILKAGVYFINTNEQFYKFVK | -1.41

Source: the domain aggregation screens of Martell et al. (2025)
